This passage reports % double-positive cells vs WT results from patent US20210403591A1.

For test [1], the target named is mTfR-1 N253A on Expi293 cells (mouse) (UniProt Q62351). Put plainly: FACS, transfected Expi293 cells. A general note: Flow cytometry measures light scatter and fluorescence of single cells or particles in a stream.
Test [2] deals with mTfR-1 S255A on Expi293 cells (mouse) (UniProt Q62351). Kind of test: FACS, transfected Expi293 cells.
The target of test [3] is mTfR-1 L256A on Expi293 cells (mouse) (UniProt Q62351). Put plainly: FACS, transfected Expi293 cells; mutant poorly expressed.
mTfR-1 L256A on Expi293 cells (mouse), sequence (Q62351 whole entry L256A): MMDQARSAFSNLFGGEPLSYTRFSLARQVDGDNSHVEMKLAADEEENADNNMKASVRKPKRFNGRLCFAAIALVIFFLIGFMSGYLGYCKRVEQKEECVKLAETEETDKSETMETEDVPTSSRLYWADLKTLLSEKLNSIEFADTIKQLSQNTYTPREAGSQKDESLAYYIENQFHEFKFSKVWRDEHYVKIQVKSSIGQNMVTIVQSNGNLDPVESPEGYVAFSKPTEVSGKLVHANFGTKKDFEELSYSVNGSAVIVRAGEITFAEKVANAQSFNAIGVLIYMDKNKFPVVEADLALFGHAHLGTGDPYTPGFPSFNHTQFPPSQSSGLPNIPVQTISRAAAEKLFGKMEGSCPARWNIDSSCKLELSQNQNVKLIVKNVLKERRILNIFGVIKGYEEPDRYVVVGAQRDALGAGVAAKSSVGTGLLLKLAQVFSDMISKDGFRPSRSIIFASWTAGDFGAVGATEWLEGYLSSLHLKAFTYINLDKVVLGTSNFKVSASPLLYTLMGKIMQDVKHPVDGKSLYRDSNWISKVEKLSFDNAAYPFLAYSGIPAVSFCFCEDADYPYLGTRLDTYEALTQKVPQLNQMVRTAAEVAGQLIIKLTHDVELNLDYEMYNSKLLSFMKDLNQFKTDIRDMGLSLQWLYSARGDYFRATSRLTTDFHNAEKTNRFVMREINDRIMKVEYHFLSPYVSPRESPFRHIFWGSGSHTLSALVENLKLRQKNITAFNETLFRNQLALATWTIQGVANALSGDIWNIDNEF

mTfR-1 S255A on Expi293 cells (mouse), sequence (Q62351 whole entry S255A): as the sequence (Q62351 whole entry L256A) above, with S255A, A256L counted along it
mTfR-1 N253A on Expi293 cells (mouse), sequence (Q62351 whole entry N253A): as the sequence (Q62351 whole entry L256A) above, with N253A, A256L counted along it

B1: Clone C variant 13 VNAR-hFc (Fc fusion, not shown: a dimerising Fc or GST)
chain: ARVDQTPQTITKETGESLTINCVLRDSNCALSSTYWYRKKSGSTNEENISKGGRYVETVNSGSKSFSLRINDLTVEDSGTYRCNVVQYPQQDNYFWCDVYGDGTAVTVN
In the case of B1, the results for the % double-positive cells vs WT in test [1] and in test [2] were 27% and 19%, respectively.

B2: Clone C VNAR-hFc fusion (Fc fusion, not shown: a dimerising Fc or GST)
chain: ARVDQTPQTITKETGESLTINCVLRDSNCALSSTYWYRKKSGSTNEENISKGGRYVETVNSGSKSFSLRINDLTVEDSGTYRCNVVQYPSYNNYFWCDVYGDGTAVTVN
For B2, in test [3], the % double-positive cells vs WT worked out at 1%.
